B1: 12C91/1-121 (VHH)
VHH: EVQLVESGGGLVQAGGSLRLSCVASGRTSSYYHMAWFRQAPGKEREFIAAINLSSGSTYYPDSVKGRFTISRGNAKNTVNLQMNSLKPEDTAVYYCAADNYRDSYLEYDYWGQGTQVTVSS
notes: C-term myc-His6 tag
B2: 12C121/1-126 (VHH)
VHH: EVQLVESGGDLVQPGESLRLSCAVSGVTVDYSGIGWFRQAPEKEREAVSCIESGDGTTTYVDSVKGRFTISRDNAKNAVYLQMNSLKPEDTGVYYCATAVFVDSGDFSVCRGVGYWGKGTQVTVSS
notes: C-term myc-His6 tag
B3: 12C81/1-117 (VHH)
VHH: EVQLVESGGGLVQPGGSLRLSCAGSGNIVRDNTMAWYRQAPGNQRDLVATINVGGGTYYAGPVKGRFTISRDNAKNSVYLQMNSLKPEDTSVYYCNVISGLVQRDYWGQGTQVTVSS
notes: C-term myc-His6 tag
B4: 12D11/1-123 (VHH)
VHH: EVQLVESGGGLVQTGGSLRLSCAASGRTFSGSRMGWFRQAPGKEREFVAAIRWSGGITWYAESVKSRFTISRDNTKNTIDLQINSLKPEDTAVYYCAADVIYKNIGSGSFDYWGQGTQVTVSS
notes: C-term myc-His6 tag
B5: 12D14/1-123 (VHH)
VHH: EVQLVESGGGLVQAGGSLRLSCAASGRTFSGSRMGWLRQAPGKEREFVAAVRWSGGITWYAESVKGRFTISRDNTKNTIDLQINSLKPEDTAVYYCAADVIYKNIGSGSFDYWGQGTQVTVSS
notes: C-term myc-His6 tag
B6: 12D102/1-118 (VHH)
VHH: EVQLVESGGGLVQPGGSLRLSCAASGSSLSFNAMGWSREAPGKRRELVARIISDDSTLYADSVKGRFTISRDYAKNTAYLQMNSLKPEDTAVYYCVADVRDSIWRSYWGQGTQVTVSS
notes: C-term myc-His6 tag
B7: 14H121/1-113 (VHH)
VHH: EVQLVESGGGLVQPGGSLRLSCAASGITFRFKAMGWFRQGPGKRRELVARIAGGSTNYADSVKGRFTISRDDAKNTVFLQMNSLKPEDTAVYYCNVDGPFGNWGQGTQVTVSS
notes: C-term myc-His6 tag
B8: 21A31/1-125 (VHH)
VHH: EVQLVESGGGLVQAGGSLRLSCAASEPTFSSVAMGWFRQGPGKEREFAATITWSGDSTYVTDSVKGRFTISRDNARNTAYLQMDSLRPEDTAVYSCAARRWSGTLSLFDNEYYYWGQGTQVTVSS
notes: C-term myc-His6 tag
B9: 14H81/1-125 (VHH)
VHH: EVQLVESGGGLVQAGGSLSLSCAASGRTFSNYRMAWFRQAPRKEREFVAAISRSGESTYFADSMKGRFTISRDNTESTGYLQMNNLKPEDTAVYYCAASWDHGDYVDGGFFYDYWGQGTQVTVSS
notes: C-term myc-His6 tag
B10: 12C71/1-125 (VHH)
VHH: EVQLVESGGGLVQAGGSLRLSCTASGGTFGSYALGWFRQSPGKERESVAAIDWDGSRTQYADSVKGRFTISRENVKDTMYLQMNSLQAEDTGVYYCVRSRHSGNTLSFSLKYDYWGQGTQVTVSS
notes: C-term myc-His6 tag
B11: 11B21/1-124 (VHH)
VHH: EVQLVESGGGLVQAGGSLRLSCAASGRTFSMYLMGWFRQAPGKEREFVSTINRRGGNTYYADSVKGRFTISRDNARNTVYLQMNSLKPEDTAVYYCAAGGHLLGYDVQWEPDYWGQGTQVTVSS
notes: C-term myc-His6 tag
B12: 12C111/1-123 (VHH)
VHH: EVQLVESGGGLVQAGGSLRLSCAVSGLTFSSYAMGWFRQAPGKVREFVATISRSGGRTSYADSVKGRFIVSRDNAKNTADLQMNDLKPEDTAVYYCGASKWYGGFGDTDIEYWGQGTQVTVSS
notes: C-term myc-His6 tag
B13: 22B55/1-123 (VHH)
VHH: EVQLVESGGGLVQAGGSLRLSCAVSGLTFSTYAMGWFRQAPGKVREFVATISRSGGRTSYADSVKGRFIVSRDNAKNTADLQMNELKPEDTAVYYCGASKWYGGFGDTDIEYWGQGTQVTVSS
notes: C-term myc-His6 tag
B14: 11B71/1-126 (VHH)
VHH: EVQLVESGGGLVQAGGSLRLSCAASGRTFERYAMGWFRQAPGKEREFVATISWSGGRDTVYADSVKGRFTISRDNAKNTVYLQMNSLKPEDTAVYYCAAHKRTYELGAHSTDFGSWGQGTQVTVSS
notes: C-term myc-His6 tag
B15: 11B61/1-120 (VHH)
VHH: EVQLVESGGGLVQAGGSLRLSCAASGRTSSGYGMGWFRQAPGKEREFVAAVGWYGSTYFADSVKGRFTIYRDNAQNTMYLQMNSLKPEDTAVYYCAASSSLATISQPSSWGQGTQVTVSS
notes: C-term myc-His6 tag
B16: 12C42/1-124 (VHH)
VHH: EVQLVESGGGLVQAGGSLRLSCAASGRTFSRYAMHWFRQAPGSERDFVAGISWDGGSTFYANSVKGRFTISRDNAKNMVYLQMNSLKPEDTAVYYCAAAGSAGPPSIDRQYDYWGQGTQVTVSS
notes: C-term myc-His6 tag
B17: 12E42/1-118 (VHH)
VHH: EVQLVESGGGLVQPGGSLRLSCAHSGRAFSLRTMGWYRQAPGNQRELVALISAGDSTYYPDSVKGRFTVSRDNAKNTVYLQMNSLKPEDTAVYYCNAKAVTSRDHEYWGQGTQVTVSS
notes: C-term myc-His6 tag
B18: 13F101/1-124 (VHH)
VHH: EVQLVESGGGLVQAGGSLRLSCQLSGGTVSDLHMGWFRQAPGKEREFVGFTRWPSITYIAEHVKGRFTISRDNAKNTVYLQMNSLEREDTAVYYCAADRSYSIDYRHPDSYSYWGQGTQVTVSS
notes: C-term myc-His6 tag
B19: 22C51/1-121 (VHH)
VHH: EVQLVESGGGLVQAGASLRLSCAASGRTFSRYDIGWFRQAPGKGREFVAAINWSGGTTSFGDSVKGRFTISRDNAKNTVYLQMNSLKPEDTAVYYCAALRSWPRGVDSGSWGQGTQVTVSS
notes: C-term myc-His6 tag
B20: 11A52/1-120 (VHH)
VHH: EVQLVESGGGLVQAGGSLRLSCAASGRALSNYAMRWFRQAPGKEREFVATINWSGSHTDYADSVKGRFTISRDNAENTVYLQMNSLTPEDTAVYYCASGWGATQAQSGFWGQGTQVTVSS
notes: C-term myc-His6 tag
B21: 14H111/1-120 (VHH)
VHH: EVQLVESGGGLVQAGGSLRLSCAASGRALISFAMRWFRQAPGKEREFVAAINWSGTHTDYADSVKGRFTISRDNAENTVYLLMNSLIPEDTAVYYCATGWGATQAQHGFWGQGTQVTVSS
notes: C-term myc-His6 tag
B22: 21A121/1-123 (VHH)
VHH: EVQLVESGGGLVQAGGSLRLSCTASGRAFNMGWFRQAPGKEREFVAGVNWGGGSTKVADSVKERFTISRDYDNSPVYLQMNTLKPEDTAVYYCAATSRWYSAVYDLPTRYDYWGQGTQVTVSS
notes: C-term myc-His6 tag
B23: 11A43/1-123 (VHH)
VHH: EVQLVESGGGLVQAGGSLRLSCAASGSIFRVNHMGWYRQAPGKQREFVAAITSDHITWYADAVKGRFTISRDNAKNTVTLQMNSLRPEDTAVYYCAADPLLFYGVGSADVDYWGQGTQVTVSS
notes: C-term myc-His6 tag

The experiment deals with T1, recombinant human ErbB2/Fc chimera (human, UniProt P04626 23-652).
T1 construct: bought from R&D Systems; also called rhErbB2-Fc; rhErb2-Fc; Fc part of the bought chimera not given; not described
Briefly: ELISA, coated ErbB2/Fc.
As to B1, the binding result is given as “binds”.

As to B2, the binding result was “binds”.

On to B3, for which the binding result is “binds”.

Take B4: the binding result is “binds”.

Consider B5, for which the binding result is reported as “binds”.

As to B6, the binding result is recorded as “binds”.

Turning to B7, the binding result was “binds”.

Turning to B8, the binding result is listed as “binds”.

Consider B9, for which the binding result is recorded as “binds”.

As to B10, the binding result is reported as “binds”.

B11: the binding result was “binds”.

On to B12, for which the binding result is “binds”.

Regarding B13, the binding result is “binds”.

In the case of B14, the binding result was “binds”.

Take B15: the binding result was “binds”.

Take B16: the binding result is “binds”.

With B17, the binding result is given as “binds”.

Turning to B18, the binding result is “binds”.

As to B19, the binding result was “binds”.

Regarding B20, the binding result was “binds”.

On to B21, for which the binding result is given as “binds”.

As for B22, the binding result was “binds”.

Take B23: the binding result was “binds”.

The values are drawn from US20150232562A1 (Ablynx, published 2015).
